{"source": "patent US20140087995A1", "about": "(published 2014)", "binders": {"B1": {"name": "N^ε-[(4S)-4-carboxy-4-(19-carboxynonadecanoylamino)butanoyl]Lys[Arg1,Arg17,Pro21,Pro27,His35]-h-amylin (peptide)", "peptide": "K([γGlu-C20 diacid])RCNTATCATQRLANFLRHSSPNFGAIPSSTNVGSHTY-NH2", "modifications": "disulfide 3-8; N-terminus assumed", "SMILES": "CC[C@H](C)[C@H](NC(=O)[C@H](C)NC(=O)CNC(=O)[C@H](Cc1ccccc1)NC(=O)[C@H](CC(N)=O)NC(=O)[C@@H]1CCCN1C(=O)[C@H](CO)NC(=O)[C@H](CO)NC(=O)[C@H](Cc1c[nH]cn1)NC(=O)[C@H](CCCNC(=N)N)NC(=O)[C@H](CC(C)C)NC(=O)[C@H](Cc1ccccc1)NC(=O)[C@H](CC(N)=O)NC(=O)[C@H](C)NC(=O)[C@H](CC(C)C)NC(=O)[C@H](CCCNC(=N)N)NC(=O)[C@H](CCC(N)=O)NC(=O)[C@@H](NC(=O)[C@H](C)NC(=O)[C@@H]1CSSC[C@H](NC(=O)[C@H](CCCNC(=N)N)NC(=O)[C@@H](N)CCCCNC(=O)CC[C@H](NC(=O)CCCCCCCCCCCCCCCCCCC(=O)O)C(=O)O)C(=O)N[C@@H](CC(N)=O)C(=O)N[C@@H]([C@@H](C)O)C(=O)N[C@@H](C)C(=O)N[C@@H]([C@@H](C)O)C(=O)N1)[C@@H](C)O)C(=O)N1CCC[C@H]1C(=O)N[C@@H](CO)C(=O)N[C@@H](CO)C(=O)N[C@H](C(=O)N[C@@H](CC(N)=O)C(=O)N[C@H](C(=O)NCC(=O)N[C@@H](CO)C(=O)N[C@@H](Cc1c[nH]cn1)C(=O)N[C@H](C(=O)N[C@@H](Cc1ccc(O)cc1)C(N)=O)[C@@H](C)O)C(C)C)[C@@H](C)O", "notes": "38 residues: N-terminal extension by Lys (-1K); also called compound 44"}, "B2": {"name": "N^-1-[(4S)-4-carboxy-4-(19-carboxynonadecanoylamino)butanoyl]-Gly[Arg1,Arg17,Pro21,Pro27]-h-amylin (peptide)", "peptide": "{C20 diacid-γGlu}-GRCNTATCATQRLANFLRHSSPNFGAIPSSTNVGSNTY-NH2", "modifications": "disulfide 3-8", "SMILES": "CC[C@H](C)[C@H](NC(=O)[C@H](C)NC(=O)CNC(=O)[C@H](Cc1ccccc1)NC(=O)[C@H](CC(N)=O)NC(=O)[C@@H]1CCCN1C(=O)[C@H](CO)NC(=O)[C@H](CO)NC(=O)[C@H](Cc1c[nH]cn1)NC(=O)[C@H](CCCNC(=N)N)NC(=O)[C@H](CC(C)C)NC(=O)[C@H](Cc1ccccc1)NC(=O)[C@H](CC(N)=O)NC(=O)[C@H](C)NC(=O)[C@H](CC(C)C)NC(=O)[C@H](CCCNC(=N)N)NC(=O)[C@H](CCC(N)=O)NC(=O)[C@@H](NC(=O)[C@H](C)NC(=O)[C@@H]1CSSC[C@H](NC(=O)[C@H](CCCNC(=N)N)NC(=O)CNC(=O)CC[C@H](NC(=O)CCCCCCCCCCCCCCCCCCC(=O)O)C(=O)O)C(=O)N[C@@H](CC(N)=O)C(=O)N[C@@H]([C@@H](C)O)C(=O)N[C@@H](C)C(=O)N[C@@H]([C@@H](C)O)C(=O)N1)[C@@H](C)O)C(=O)N1CCC[C@H]1C(=O)N[C@@H](CO)C(=O)N[C@@H](CO)C(=O)N[C@H](C(=O)N[C@@H](CC(N)=O)C(=O)N[C@H](C(=O)NCC(=O)N[C@@H](CO)C(=O)N[C@@H](CC(N)=O)C(=O)N[C@H](C(=O)N[C@@H](Cc1ccc(O)cc1)C(N)=O)[C@@H](C)O)C(C)C)[C@@H](C)O", "notes": "38 residues: N-terminal extension by Gly (-1G); also called compound 46"}, "B3": {"name": "N^-1-[(4S)-4-carboxy-4-(19-carboxynonadecanoylamino)butanoyl]-Gly[Arg1,Arg17,Pro21,Pro27,His35]-h-amylin (peptide)", "peptide": "{C20 diacid-γGlu}-GRCNTATCATQRLANFLRHSSPNFGAIPSSTNVGSHTY-NH2", "modifications": "disulfide 3-8", "SMILES": "CC[C@H](C)[C@H](NC(=O)[C@H](C)NC(=O)CNC(=O)[C@H](Cc1ccccc1)NC(=O)[C@H](CC(N)=O)NC(=O)[C@@H]1CCCN1C(=O)[C@H](CO)NC(=O)[C@H](CO)NC(=O)[C@H](Cc1c[nH]cn1)NC(=O)[C@H](CCCNC(=N)N)NC(=O)[C@H](CC(C)C)NC(=O)[C@H](Cc1ccccc1)NC(=O)[C@H](CC(N)=O)NC(=O)[C@H](C)NC(=O)[C@H](CC(C)C)NC(=O)[C@H](CCCNC(=N)N)NC(=O)[C@H](CCC(N)=O)NC(=O)[C@@H](NC(=O)[C@H](C)NC(=O)[C@@H]1CSSC[C@H](NC(=O)[C@H](CCCNC(=N)N)NC(=O)CNC(=O)CC[C@H](NC(=O)CCCCCCCCCCCCCCCCCCC(=O)O)C(=O)O)C(=O)N[C@@H](CC(N)=O)C(=O)N[C@@H]([C@@H](C)O)C(=O)N[C@@H](C)C(=O)N[C@@H]([C@@H](C)O)C(=O)N1)[C@@H](C)O)C(=O)N1CCC[C@H]1C(=O)N[C@@H](CO)C(=O)N[C@@H](CO)C(=O)N[C@H](C(=O)N[C@@H](CC(N)=O)C(=O)N[C@H](C(=O)NCC(=O)N[C@@H](CO)C(=O)N[C@@H](Cc1c[nH]cn1)C(=O)N[C@H](C(=O)N[C@@H](Cc1ccc(O)cc1)C(N)=O)[C@@H](C)O)C(C)C)[C@@H](C)O", "notes": "38 residues: N-terminal extension by Gly (-1G); also called compound 47"}, "B4": {"name": "N^ε1-[2-[2-[2-(19-carboxynonadecanoylamino)ethoxy]ethoxy]acetyl]-[Arg17,Pro21,Pro27]-h-amylin (peptide)", "peptide": "K([AEEA-C20 diacid])CNTATCATQRLANFLRHSSPNFGAIPSSTNVGSNTY-NH2", "modifications": "disulfide 2-7; N-terminus assumed", "SMILES": "CC[C@H](C)[C@H](NC(=O)[C@H](C)NC(=O)CNC(=O)[C@H](Cc1ccccc1)NC(=O)[C@H](CC(N)=O)NC(=O)[C@@H]1CCCN1C(=O)[C@H](CO)NC(=O)[C@H](CO)NC(=O)[C@H](Cc1c[nH]cn1)NC(=O)[C@H](CCCNC(=N)N)NC(=O)[C@H](CC(C)C)NC(=O)[C@H](Cc1ccccc1)NC(=O)[C@H](CC(N)=O)NC(=O)[C@H](C)NC(=O)[C@H](CC(C)C)NC(=O)[C@H](CCCNC(=N)N)NC(=O)[C@H](CCC(N)=O)NC(=O)[C@@H](NC(=O)[C@H](C)NC(=O)[C@@H]1CSSC[C@H](NC(=O)[C@@H](N)CCCCNC(=O)COCCOCCNC(=O)CCCCCCCCCCCCCCCCCCC(=O)O)C(=O)N[C@@H](CC(N)=O)C(=O)N[C@@H]([C@@H](C)O)C(=O)N[C@@H](C)C(=O)N[C@@H]([C@@H](C)O)C(=O)N1)[C@@H](C)O)C(=O)N1CCC[C@H]1C(=O)N[C@@H](CO)C(=O)N[C@@H](CO)C(=O)N[C@H](C(=O)N[C@@H](CC(N)=O)C(=O)N[C@H](C(=O)NCC(=O)N[C@@H](CO)C(=O)N[C@@H](CC(N)=O)C(=O)N[C@H](C(=O)N[C@@H](Cc1ccc(O)cc1)C(N)=O)[C@@H](C)O)C(C)C)[C@@H](C)O", "notes": "also called compound 43"}, "B5": {"name": "N^ε21-[(4S)-4-carboxy-4-[[(4S)-4-carboxy-4-(19-carboxynonadecanoylamino)butanoyl]amino]butanoyl]-[Asp14,Arg17,Lys21,Pro27,Asp35]-h-amylin (peptide)", "peptide": "KCNTATCATQRLADFLRHSSK([γGlu-γGlu-C20 diacid])NFGAIPSSTNVGSDTY-NH2", "modifications": "disulfide 2-7; N-terminus assumed", "SMILES": "CC[C@H](C)[C@H](NC(=O)[C@H](C)NC(=O)CNC(=O)[C@H](Cc1ccccc1)NC(=O)[C@H](CC(N)=O)NC(=O)[C@H](CCCCNC(=O)CC[C@H](NC(=O)CC[C@H](NC(=O)CCCCCCCCCCCCCCCCCCC(=O)O)C(=O)O)C(=O)O)NC(=O)[C@H](CO)NC(=O)[C@H](CO)NC(=O)[C@H](Cc1c[nH]cn1)NC(=O)[C@H](CCCNC(=N)N)NC(=O)[C@H](CC(C)C)NC(=O)[C@H](Cc1ccccc1)NC(=O)[C@H](CC(=O)O)NC(=O)[C@H](C)NC(=O)[C@H](CC(C)C)NC(=O)[C@H](CCCNC(=N)N)NC(=O)[C@H](CCC(N)=O)NC(=O)[C@@H](NC(=O)[C@H](C)NC(=O)[C@@H]1CSSC[C@H](NC(=O)[C@@H](N)CCCCN)C(=O)N[C@@H](CC(N)=O)C(=O)N[C@@H]([C@@H](C)O)C(=O)N[C@@H](C)C(=O)N[C@@H]([C@@H](C)O)C(=O)N1)[C@@H](C)O)C(=O)N1CCC[C@H]1C(=O)N[C@@H](CO)C(=O)N[C@@H](CO)C(=O)N[C@H](C(=O)N[C@@H](CC(N)=O)C(=O)N[C@H](C(=O)NCC(=O)N[C@@H](CO)C(=O)N[C@@H](CC(=O)O)C(=O)N[C@H](C(=O)N[C@@H](Cc1ccc(O)cc1)C(N)=O)[C@@H](C)O)C(C)C)[C@@H](C)O", "notes": "also called compound 59"}}, "note": "Numbered stars: 1 amine (or outer) side, 2 acyl side, 3 side chain; on linkers, the order of the positions; unused ones are H or OH. Bridge positions count the residues as written; N and C are the ends. Side chains are listed from the residue outwards. Ends that are not written are not given here. * marks the point of attachment. C20 diacid = O=C(O)CCCCCCCCCCCCCCCCCCC(=O)*; γGlu = O=C(O)[C@H](CCC(=O)[*:2])N[*:1]; AEEA = NCCOCCOCC(=O)O"}
{"target": "T1, human calcitonin receptor (human, UniProt P30988 25-474)", "T1 sequence (looked up)": "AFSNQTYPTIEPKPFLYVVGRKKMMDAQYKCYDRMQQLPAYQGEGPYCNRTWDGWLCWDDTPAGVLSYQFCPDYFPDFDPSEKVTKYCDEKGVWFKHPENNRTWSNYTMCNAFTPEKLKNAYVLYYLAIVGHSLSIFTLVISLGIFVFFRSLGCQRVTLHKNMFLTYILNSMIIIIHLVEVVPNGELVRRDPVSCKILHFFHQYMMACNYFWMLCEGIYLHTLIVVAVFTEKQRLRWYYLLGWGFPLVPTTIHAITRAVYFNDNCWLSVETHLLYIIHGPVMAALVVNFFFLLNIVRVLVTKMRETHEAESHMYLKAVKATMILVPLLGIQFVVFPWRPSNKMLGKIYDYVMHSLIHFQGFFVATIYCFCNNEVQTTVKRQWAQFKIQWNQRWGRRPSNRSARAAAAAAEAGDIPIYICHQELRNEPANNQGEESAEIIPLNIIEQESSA", "experiment": "cell-based or functional assay", "units": {"hCTR funct. EC50": "nM"}}
{"binder": "B1", "Ratio hCT/hAmylin funct. (hCTR EC50 against hAmylin-R EC50)": 24, "hCTR funct. EC50": 4.75}
{"binder": "B2", "Ratio hCT/hAmylin funct. (hCTR EC50 against hAmylin-R EC50)": 10.2, "hCTR funct. EC50": 0.899}
{"binder": "B3", "Ratio hCT/hAmylin funct. (hCTR EC50 against hAmylin-R EC50)": 6, "hCTR funct. EC50": 1.32}
{"binder": "B4", "Ratio hCT/hAmylin funct. (hCTR EC50 against hAmylin-R EC50)": 6.5, "hCTR funct. EC50": 0.92}
{"binder": "B5", "Ratio hCT/hAmylin funct. (hCTR EC50 against hAmylin-R EC50)": 5, "hCTR funct. EC50": 1.95}
{"target": "T2, human amylin receptor (amylin 3(a) receptor: human calcitonin receptor co-expressed with RAMP-3) (human, UniProt P30988 25-474; O60896 24-148, limits assumed)", "T2 sequence (looked up) 1": "T1 sequence (looked up)", "T2 sequence (looked up) 2": "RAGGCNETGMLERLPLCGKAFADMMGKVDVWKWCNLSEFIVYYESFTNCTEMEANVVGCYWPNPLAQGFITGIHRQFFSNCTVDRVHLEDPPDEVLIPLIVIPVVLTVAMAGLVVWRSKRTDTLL", "experiment": "cell-based or functional assay", "units": {"hAmylin-R funct. EC50": "nM"}}
{"binder": "B1", "hAmylin-R funct. EC50": 0.198}
{"binder": "B2", "hAmylin-R funct. EC50": 0.088}
{"binder": "B3", "hAmylin-R funct. EC50": 0.222}
{"binder": "B4", "hAmylin-R funct. EC50": 0.141}
{"binder": "B5", "hAmylin-R funct. EC50": 0.389}
